The source of these data is patent US20150344570A1 (published 2015).

In assay [1] the target is T1, FcγRIIb extracellular domain with C-terminal His tag (human, UniProt P31994 43-217).
T1 construct: extracellular domain; Soluble receptor expressed in FreeStyle293 cells and used as analyte in Biacore; also called FcgRIIb; 2b; not shown: His tag attached to the C terminus
T1 sequence (looked up): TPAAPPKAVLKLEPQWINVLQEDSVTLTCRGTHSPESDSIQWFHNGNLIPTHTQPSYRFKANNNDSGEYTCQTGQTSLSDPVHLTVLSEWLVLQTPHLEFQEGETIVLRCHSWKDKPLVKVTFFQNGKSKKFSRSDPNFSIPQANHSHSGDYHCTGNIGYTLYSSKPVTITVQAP
The experiment in a line: SPR (Biacore), antibody captured, FcγR as analyte; binding activity relative to control heterodimerized antibody. On the procedure: (§1) The heterodimerized antibodies He Abs in which one of the H chains was introduced with an alteration were assayed for their binding activities to each activating FcγR and inhibitory FcγR according to the method described in Example 4. […] The activating FcγRs in FIGS. 26, 27, 28, and 29 are FcγRIa, FcγRIIa (R), FcγRIIa (H), and FcγRIIIa, respectively.
(§2) Analysis of interaction between objective antibody and the FcγR was carried out using Biacore T100 (GE Healthcare). HBS-EP+ (GE Healthcare) was used as the running buffer, and the measurement temperature was set to 25° C. Chips produced by immobilizing the antigen peptide by the amine coupling method to a Series S Sencor Chip CM5 (GE Healthcare), or alternatively, chips produced by allowing preliminarily biotinylated antigen peptides to interact with and immobilize onto a Series S Sensor Chip SA (certified) (GE Healthcare) were used. Antibodies of interest were captured onto an antigen peptide-immobilized chip, and allowed to interact to each FcγR diluted with running buffer. To regenerate and repeatedly use the chip, the antibodies captured on the chip were washed off by reacting 10 mM glycine-HCl, pH 1.5.
(Surface plasmon resonance follows binding to a sensor surface in real time, without labels.)

The target of assay [2] is T2, FcγRIIIa extracellular domain with C-terminal His tag (human, UniProt P08637 17-208).
T2 construct: extracellular domain; also called FcgRIIIa; 3a; not shown: His tag attached to the C terminus
T2 sequence (P08637 17-208): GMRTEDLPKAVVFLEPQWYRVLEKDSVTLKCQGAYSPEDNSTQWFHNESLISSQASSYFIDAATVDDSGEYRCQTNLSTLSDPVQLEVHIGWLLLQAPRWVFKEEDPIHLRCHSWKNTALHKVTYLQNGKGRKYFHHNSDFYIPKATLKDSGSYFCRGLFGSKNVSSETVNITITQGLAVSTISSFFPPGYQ
The assay is described as above. On the procedure: as §1, §2

Assay [3] addresses T2, FcγRIIIa extracellular domain with …. The experiment in a line: SPR (Biacore); He/Con_3a divided by He/Con_2b (FcγRIIIa over FcγRIIb). On the procedure:
as §1, §2

The target in assay [4] is T3, FcγRIa (human, UniProt P12314 16-292).
T3 construct: extracellular domain; Soluble extracellular domain with C-terminal His tag, used as analyte in Biacore; also called FcgRI; 1a; not shown: His tag attached to the C terminus
T3 sequence (P12314 16-292): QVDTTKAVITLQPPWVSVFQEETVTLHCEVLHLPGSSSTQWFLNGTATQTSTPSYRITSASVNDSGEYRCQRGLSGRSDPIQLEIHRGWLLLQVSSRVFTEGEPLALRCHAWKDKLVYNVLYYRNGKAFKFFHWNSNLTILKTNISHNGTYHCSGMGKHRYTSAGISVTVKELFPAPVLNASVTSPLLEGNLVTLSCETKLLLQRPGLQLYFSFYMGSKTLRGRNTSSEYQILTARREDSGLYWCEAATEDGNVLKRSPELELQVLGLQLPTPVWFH
The experiment in a line: SPR (Biacore), antibody captured, FcγR as analyte; relative to GpH7-A5/GpH7-B3/GpL16-k0 = 100.

The next assay deals with T4, FcγRIIb (human, UniProt P31994 43-217).
T4 construct: extracellular domain; Soluble extracellular domain with C-terminal His tag, used as analyte in Biacore; also called FcgRIIb; 2b; not shown: His tag attached to the C terminus
T4 sequence (looked up): T1 sequence (looked up)
The assay is described as above.

Assay [5] deals with T3, FcγRIa. Briefly: SPR (Biacore); He/Con_1a divided by He/Con_2b (binding to FcγRIa against binding to FcγRIIb). On the procedure:
as §1, §2

B1: GpH7-A5/GpH7-B3 variant Q295_09D/GpL16-k0 (antibody, human IgG1, kappa)
heavy 1: not shown
heavy 2: not shown
light: DIVMTQSPLSLPVTPGEPASISCQASESLVHSNRNTYLHWYLQKPGQSPQLLIYKVSNRFSGVPDRFSGSGSGTDFTLKISRVEAEDVGVYYCSQNTHVPPTFGQGTKVEIERTVAAPSVFIFPPSDEQLKSGTASVVCLLNNFYPREAKVQWKVDNALQSGNSQESVTEQDSKDSTYSLSSTLTLSKADYEKHKVYACEVTHQGLSSPVTKSFNRGEC
notes: Heterodimerized anti-glypican-3 IgG1 with the alteration in only one H chain; also called He Ab
In the case of B1, the He/Con_2b in assay [1] was 60.8 % of GpH7-A5/GpH7-B3/GpL16-k0 (=100). For the same molecule, the He/Con_3a in assay [2] was 81.5 % of GpH7-A5/GpH7-B3/GpL16-k0 (=100). Also, the He_3a/2b in assay [3] was found to be 1.34 ratio.

B2: GpH7-A5/GpH7-B3 variant G237_20W/GpL16-k0 (antibody, human IgG1, kappa)
heavy 1: not shown
heavy 2: not shown
light: B1 light
notes: Heterodimerized anti-glypican-3 IgG1; alteration in the GpH7-B3 chain only; also called He Ab
B2: in the assay with FcγRIa [4], the He/Con_1a was 78.4 % of control (=100). In the assay with FcγRIIb, the He/Con_2b is 193 % of control (=100). Further, in the assay with FcγRIa [5], the “He_1a/2b (Ia/IIb)” value is 0.41 ratio.

B3: GpH7-A5/GpH7-B3 variant E269_06M/GpL16-k0 (antibody, human IgG1, kappa)
heavy 1: not shown
heavy 2: not shown
light: B1 light
notes: as for B1
With B3, the He/Con_2b in assay [1] is 46.7 % of GpH7-A5/GpH7-B3/GpL16-k0 (=100). In addition, the He/Con_3a in assay [2] was 58.5 % of GpH7-A5/GpH7-B3/GpL16-k0 (=100). In assay [3], this molecule displayed a He_3a/2b of 1.25 ratio.

B4: GpH7-A5/GpH7-B3 variant Q295_02A/GpL16-k0 (antibody, human IgG1, kappa)
heavy 1: not shown
heavy 2: not shown
light: B1 light
notes: as for B1
For the molecule B4, the He/Con_2b in assay [1] is 79.7 % of GpH7-A5/GpH7-B3/GpL16-k0 (=100). In assay [2], the He/Con_3a was 106 % of GpH7-A5/GpH7-B3/GpL16-k0 (=100). The molecule also returned a He_3a/2b in assay [3] of 1.32 ratio.

B5: GpH7-A5/GpH7-B3 variant D270_18N/GpL16-k0 (antibody, human IgG1, kappa)
heavy 1: not shown
heavy 2: not shown
light: B1 light
notes: as for B1
B5: the He/Con_2b in assay [1] is 40.3 % of GpH7-A5/GpH7-B3/GpL16-k0 (=100). For the same molecule, in assay [2], the He/Con_3a is 56.5 % of GpH7-A5/GpH7-B3/GpL16-k0 (=100). In addition, in assay [3], the He_3a/2b is 1.4 ratio.

B6: GpH7-A5/GpH7-B3 variant E269_03V/GpL16-k0 (antibody, human IgG1, kappa)
heavy 1: not shown
heavy 2: not shown
light: B1 light
notes: as for B1
With B6, in assay [1], the He/Con_2b is 45.1 % of GpH7-A5/GpH7-B3/GpL16-k0 (=100). Besides, in assay [2], the He/Con_3a is 56.6 % of GpH7-A5/GpH7-B3/GpL16-k0 (=100). For the same molecule, in assay [3], the He_3a/2b was found to be 1.25 ratio.

B7: GpH7-A5/GpH7-B3 variant P271_20W/GpL16-k0 (antibody, human IgG1, kappa)
heavy 1: not shown
heavy 2: not shown
light: B1 light
notes: as for B1
In the case of B7, the He/Con_2b in assay [1] is 58.1 % of GpH7-A5/GpH7-B3/GpL16-k0 (=100). For the same molecule, the He/Con_3a in assay [2] is 74.1 % of GpH7-A5/GpH7-B3/GpL16-k0 (=100). In assay [3], this molecule registered a He_3a/2b of 1.28 ratio.

B8: GpH7-A5/GpH7-B3 variant D270_15Y/GpL16-k0 (antibody, human IgG1, kappa)
heavy 1: not shown
heavy 2: not shown
light: B1 light
notes: as for B1
Regarding B8, the He/Con_2b in assay [1] is 44.9 % of GpH7-A5/GpH7-B3/GpL16-k0 (=100). Moreover, in assay [2], the He/Con_3a was 54.5 % of GpH7-A5/GpH7-B3/GpL16-k0 (=100). The molecule also had a He_3a/2b in assay [3] of 1.22 ratio.

B9: GpH7-A5/GpH7-B3 variant D270_19Q/GpL16-k0 (antibody, human IgG1, kappa)
heavy 1: not shown
heavy 2: not shown
light: B1 light
notes: as for B1
With B9, the He/Con_2b in assay [1] is 48 % of GpH7-A5/GpH7-B3/GpL16-k0 (=100). Besides, in assay [2], the He/Con_3a is 81.9 % of GpH7-A5/GpH7-B3/GpL16-k0 (=100). The He_3a/2b in assay [3] came out at 1.7 ratio.

B10: GpH7-A5/GpH7-B3 variant E269_08L/GpL16-k0 (antibody, human IgG1, kappa)
heavy 1: not shown
heavy 2: not shown
light: B1 light
notes: as for B1
Turning to B10, in assay [1], the He/Con_2b was 42.9 % of GpH7-A5/GpH7-B3/GpL16-k0 (=100). For the same molecule, the He/Con_3a in assay [2] was 52.1 % of GpH7-A5/GpH7-B3/GpL16-k0 (=100). Moreover, in assay [3], the He_3a/2b stood at 1.21 ratio.

B11: GpH7-A5/GpH7-B3 variant G237_19Q/GpL16-k0 (antibody, human IgG1, kappa)
heavy 1: not shown
heavy 2: not shown
light: B1 light
notes: as for B2
Take B11: the He/Con_1a with FcγRIa [4] was 82.8 % of control (=100). Moreover, the He/Con_2b with FcγRIIb was 108 % of control (=100). The “He_1a/2b (Ia/IIb)” value with FcγRIa [5] was 0.77 ratio.

B12: GpH7-A5/GpH7-B3 variant G237_06M/GpL16-k0 (antibody, human IgG1, kappa)
heavy 1: not shown
heavy 2: not shown
light: B1 light
notes: as for B2
B12: the He/Con_1a with FcγRIa [4] is 81.6 % of control (=100). Moreover, in the assay with FcγRIIb, the He/Con_2b is 130 % of control (=100). For the same molecule, the “He_1a/2b (Ia/IIb)” value with FcγRIa [5] is 0.63 ratio.

B13: GpH7-A5/GpH7-B3 variant G237_04F/GpL16-k0 (antibody, human IgG1, kappa)
heavy 1: not shown
heavy 2: not shown
light: B1 light
notes: as for B2
Consider B13, for which the He/Con_1a with FcγRIa [4] was 81.5 % of control (=100). Also, the He/Con_2b with FcγRIIb is 149 % of control (=100). The “He_1a/2b (Ia/IIb)” value with FcγRIa [5] worked out at 0.55 ratio.

B14: GpH7-A5/GpH7-B3 variant E269_11K/GpL16-k0 (antibody, human IgG1, kappa)
heavy 1: not shown
heavy 2: not shown
light: B1 light
notes: as for B1
In the case of B14, in assay [1], the He/Con_2b is 17.8 % of GpH7-A5/GpH7-B3/GpL16-k0 (=100). In assay [2], the He/Con_3a is 44 % of GpH7-A5/GpH7-B3/GpL16-k0 (=100). The same molecule came in with a He_3a/2b in assay [3] of 2.47 ratio.

B15: GpH7-A5/GpH7-B3 variant E269_07I/GpL16-k0 (antibody, human IgG1, kappa)
heavy 1: not shown
heavy 2: not shown
light: B1 light
notes: as for B1
B15: in assay [1], the He/Con_2b was 43.9 % of GpH7-A5/GpH7-B3/GpL16-k0 (=100). For the same molecule, the He/Con_3a in assay [2] was 55.8 % of GpH7-A5/GpH7-B3/GpL16-k0 (=100). This molecule also showed a He_3a/2b in assay [3] of 1.27 ratio.
